System: MS2 coat protein
Experiment: apparent KD of MS2 coat protein; designed switch direction (-1 OFF switch, 1 ON switch): 1; higher = weaker reporter binding
Method in brief: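 An oligonucleotide input, 200 uM small-molecule ligand, or no input was present during titration of SNAP-549-labelled MS2 coat protein, which was doubled from 0.7 or 1.5 nM to 3 µM. Designed RNA switches had been transcribed on Illumina chips by stalled E. coli RNA polymerase. Apparent KD per design is the median over clusters of curves fitted to normalised cluster fluorescence.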

[1] = input ligand: microRNA oligo, concentration not stated
[2] = Eterna round: R95, input ligand: FMN 200 uM
[3] = Eterna round: R95, input ligand: microRNA oligo, concentration not stated
[4] = Eterna round: R95, input ligand: none

| Sequence | apparent KD of MS2 coat protein (input ligand: FMN 200 uM) | apparent KD of MS2 coat protein [1] | apparent KD of MS2 coat protein (input ligand: none) | apparent KD of MS2 coat protein [2] | apparent KD of MS2 coat protein [3] | apparent KD of MS2 coat protein [4] |
| --- | --- | --- | --- | --- | --- | --- |
| CCAUAGUACAAUUUAGAUCUACAUGAGGAUCACCCAUGUACUGAGGAUAUCAGCUCGUUUAGAGCUGAGAAGGCAGAAGUACUU [SSNG3/6-A3] (Eterna round: R96, puzzle: Same State NG 3) | 0.0342 µM | 0.0648 µM | 0.102 µM | – | – | – |
| CUGUAUCGCGGAGGAUAUGGGCUGAGACCAGGACAACCCUGGUCAACAUGAGGAUCACCCAUGUCCCAGAAGGCCGCGAUGCUA [Zazalaonor] (Eterna round: R96, puzzle: Same State NG 2) | 0.0161 µM | 0.0973 µM | 0.108 µM | – | – | – |
| UUUAGUUGCGGGCAGGAUAUGUAUUAAAAUACAUGAGGAUCACCCAUGUGAGAUCGAAAAGAUCUACAGAAGGGCCAAUCGCGAC [Laonerce - 24] (puzzle: Same State 2) | – | – | – | 0.014 µM | 0.0583 µM | 0.0858 µM |
| CUCGUAUCGGGAGGAUAUGGUGCCUUGUUGGUGCUAGAAGGUCCAACAUGAGGAUCACCCAUGUGCGAGUGGUUGAGAGACCGG [SS NG10LRO15] (Eterna round: R96, puzzle: Same State NG 1) | 0.336 µM | 0.23 µM | 0.399 µM | – | – | – |
| GUGGUGAAUUAAGGAUAUCGAGUCAAGAUGUUAAACAUGAGGAUCACCCAUGUGGGUUGCGGUAUCGAGAAGGUAAUUUACGGG [salish99_SSNG2_r04_506] (Eterna round: R96, puzzle: Same State NG 2) | 0.0173 µM | 0.0201 µM | 0.0303 µM | – | – | – |
| GGUAGGUUACUACCAAACAUGAGGAUCACCCAUGUUAAUGGGAAGGAUAUGGUACCUAUUUGGUACCAGAAGGUCCAAAUAAUU [Mat - Same State NG 3 - JL Mod - D97] (Eterna round: R96, puzzle: Same State NG 3) | 0.0732 µM | 0.261 µM | 0.596 µM | – | – | – |
| UUAAUAAUGAUAGGAUAUACAUGAGGAAUUCUCGUAGAAGGAUCAUGACAUGAGGAUCACCCAUGUAACGCUCGGAAGAGCGUA [Mat - Same State NG 1 - JL mod - D38] (Eterna round: R96, puzzle: Same State NG 1) | 0.846 µM | 0.236 µM | 0.909 µM | – | – | – |
| AACAAUCUAUCUGAGGAUAUCAUGAAAUAAACAUGAGGAUCACCCAUGUGCAGGAAAACUGCAUUUGAGAAGGCAGAUAGAUUGA [salish99_ss2_r3_048] (puzzle: Same State 2) | – | – | – | 0.0146 µM | 0.106 µM | 0.0672 µM |
| AUUCGUUUGAUAGGAUAUCACCUUACAUGAGGAUCACCCAUGUUCACCACGCUGGUUUUUCAUACUGAGAAGGAUCUUGAUGAC [JR_SSNG2_Sub007] (Eterna round: R96, puzzle: Same State NG 2) | 0.0505 µM | 0.0456 µM | 0.0514 µM | – | – | – |
| AUAAUUUAUGCAGGAUAUGAUUAACAUGAGGAUCACCCAUGUGGUGUUGUGAGUAAGGAGAGUGAUCAGAAGGGCAUUUUUUUU [JMF's solution 70] (Eterna round: R96, puzzle: Same State NG 2) | 0.734 µM | 0.391 µM | 0.4 µM | – | – | – |
| CUUUUUAAUGCAGGAUAUGAUCAACAUGAGGAUCACCCAUGUGGCGUUGUGAGUAAGGAGAGUGAUCAGAAGGGCAUCUCCUCA [SS-NG2-LRO07] (Eterna round: R96, puzzle: Same State NG 2) | 0.0575 µM | 0.0545 µM | 0.0458 µM | – | – | – |
| GUAGCAUACCGAGGAUAUUCAUAUUAAAACAUGAGGAUCACCCAUGUUUAGGCCAAAAGGCCUUGGGAGAAGGCGGAAUGCUAC [Xeonanis - 20 Mod4] (Eterna round: R96, puzzle: Same State NG 2) | 0.0192 µM | 0.0179 µM | 0.0251 µM | – | – | – |
| UGCCUGAGUCGAGGAUAUUAUGGAUCCUUUAAUACAUGAGGAUCACCCAUGUAAUUAAUUAUACAUGAGAAGGCGACUCAGGCA [SSNG2/11-A2] (Eterna round: R96, puzzle: Same State NG 2) | 0.0174 µM | 0.097 µM | 0.0901 µM | – | – | – |
| UAUGACUUACAAGGAUAUUAAUGACAUGAGGAUCACCCAUGUGGCUGUGUAUGUUAGAUAAGCAUUAAGAAGGUGUGCGAGUCU [JR_SSNG2_Sub097] (Eterna round: R96, puzzle: Same State NG 2) | 0.0307 µM | 0.0232 µM | 0.0254 µM | – | – | – |
| GUAUAACAUGAGGAUCACCCAUGUCAACAAAGUCGAGGAUAUGGGCAUAGAUUAUAAGAACCAGAAGGCGAAUAUG [Mat - Same State 1 - Mod of UCT - D42] (puzzle: Same State 1) | – | – | – | 0.119 µM | 0.219 µM | 0.666 µM |
| AAAAAACAUGAGGAUCACCCAUGUAAAAAAAUGGGAGGAUAUCUGAAUUAAUUAAAUUAAGGAGAAGGCCUAAAAA [71%, Same state of confusion2, 4] (Eterna round: R96, puzzle: Same State 1) | – | 0.192 µM | – | – | – | – |
| ACAAGCUUUUUAGGAGAGAAAGGAGGGAAACAUGAGGAUCACCCAUGUAUGGUAGUGAAUAGAGGAACUCGUCUUAU [JR_SHM208A_Sub080] (puzzle: Sensor for hsa-mir-208a) | – | – | – | 0.0905 µM | 0.0256 µM | 0.152 µM |
| CGUCCGGCCUGUGCUGGCCGGAAGCAUGUACAUGAGGAUCACCCAUGUUCUUGUGCAGGCUUUUUGCUCGUCUUGUG [salish99_mir208a_010] (puzzle: Sensor for hsa-mir-208a) | – | – | – | 0.0249 µM | 0.0147 µM | 0.0222 µM |
| AUAUACUGGGUAGGAUAUCUAGGAUAUGGGAAAGACUAAGUCUGUAGGUCACCUAACCCAGAUGGAGAGAAGGACCCAACACAC [pwkr ssNG2 2FMN + F9.42] (Eterna round: R96, puzzle: Same State NG 2) | 0.0161 µM | 0.0052 µM | 0.0426 µM | – | – | – |
| AAUUAAGAUCUAGGAUAUCACGUCGAAUAGACGUGAGAAGGAGAUCAUAACAUGAGGAUCACCCAUGUAUUACAUGAAUUAAUU [SSNG1/6-B1] (Eterna round: R96, puzzle: Same State NG 1) | 0.028 µM | 0.0216 µM | 0.0284 µM | – | – | – |
| GUACUCAUGUAAGGAUAUGCAGCCGUUUCGGCUGCAGAAGGUACUAUAAUACAUGAGGAUCACCCAUGUCUCUAUAAUUUAGUG [salish99_SSNG1_r04_901] (Eterna round: R96, puzzle: Same State NG 1) | 0.0706 µM | 0.0345 µM | 0.049 µM | – | – | – |
| GGCAGUCCGACACAGGAUAUGGGUAACGAAACAUGAGGAUCACCCAUGUGGAAACAUCGGGUUGCCUAGAAGGGUGGAAAGAUUG [Xeti] (Eterna round: R96, puzzle: Same State 2) | 0.0324 µM | 0.0716 µM | 0.124 µM | – | – | – |
| GGUGCGAAUAAAGCCUACAUGAGGAUCACCCAUGUAUGUAGGCAGGAUAUCGUUUGCAAAGCAAACGAGAAGGGCUGUCGCACC [Mat - Same State NG 3 - JL Mod - D46] (Eterna round: R96, puzzle: Same State NG 3) | 0.0299 µM | 0.0552 µM | 0.1 µM | – | – | – |
| UAUAAACAUGAGGAUCACCCAUGUAAUAAUAUGGGAGGAUAUCAGAAUGUAUUUAUUUAAUGAGAAGGCCUAAUAU [Mat - Same State 1 - Mod of Eli - D68] (puzzle: Same State 1) | – | – | – | 0.0464 µM | 0.532 µM | 0.645 µM |
| AGUCCAGCCUGAGCUGGACAAAAGCAUGUACAUGAGGAUCACCCAUGUUCAUGUACAAGCUUUUUGUUCGUCUUAAA [Zipper 52 - 9] (puzzle: Sensor for hsa-mir-208a) | – | – | – | 0.179 µM | 0.011 µM | 0.431 µM |
| AUAAAACAUGAGGAUCACCCAUGUCAACAAAGUCGAGGAUAUGUGCAAAUAAAAUAAGAACCAGAAGGCGAAUAAU [salish99_ss1_r3_049] (puzzle: Same State 1) | – | – | – | 0.0162 µM | 0.0223 µM | 0.0379 µM |
| GCUAGUAUUAUUGCUAACAUGAGGAUCACCCAUGUAUGUUGGCAGGAUAUCGUUUGCUUUGCAAACGAGAAGGGCUAAACUAGC [JL SSNG3 1.05] (Eterna round: R96, puzzle: Same State NG 3) | 0.0258 µM | 0.0654 µM | 0.0717 µM | – | – | – |
| GCCAUCGUGUGAGGAUAUGGCACCGUUUCGGUGCCAGAAGGCAUGUCAAUUGACAUGAGGAUCACCCAUGUAUUAGCGAUGGCA [JL Fiskers NG1ss - 33 mod 3] (Eterna round: R96, puzzle: Same State NG 1) | 0.159 µM | 0.292 µM | 0.988 µM | – | – | – |
| UGGCUCAGACGAGGAUAUAUGUGAUCACAUGAGGAUCACCCAUGUCUCGAGCUUCGGCUCGAGACAUAGAAGGCGUCUGAGCCA [SSNG2/3-A2] (Eterna round: R96, puzzle: Same State NG 2) | 0.118 µM | 0.0663 µM | 0.0185 µM | – | – | – |
| AAGUGGAACUGAGGAUAUGGCAUCCGAACAUGAGGAUCACCCAUGUAGUUAGGAAAAGAACGGAGCCAGAAGGUAGGACUCCGC [Soqube] (Eterna round: R96, puzzle: Same State NG 2) | 0.0106 µM | 0.00965 µM | 0.015 µM | – | – | – |
